# Laboratory results from PMC7954794, “Protein context shapes the specificity of SH3 domain-mediated interactions in vivo” (Nature Communications, 2021).
# B1: S. cerevisiae Abp1 (full length; SH3 domain 535-592 mutated) / Hua2 (parent)
# chain 1: MALEPIDYTTHSREIDAEYLKIVRGSDPDTTWLIISPNAKKEYEPESTGSSFHDFLQLFDETKVQYGLARVSPPGSDVEKIIIIGWCPDSAPLKTRASFAANFAAVANNLFKGYHVQVTARDEDDLDENELLMKISNAAGARYSIQTSSKQQGKASTPPVKKSFTPSKSPAPVSKKEPVKTPSPAPAAKISSRVNDNNDDDDWNEPELKERDFDQAPLKPNQSSYKPIGKIDLQKVIAEEKAKEDPRLVQKPTAAGSKIDPSSDIANLKNESKLKRDSEFNSFLGTTKPPSMTESSLKNDDDKVIKGFRNEKSPAQLWAERKAKQNSGNAETKAEAPKPEVPEDEPEGEPDVKDLKSKFEGLAASEKEEEEMENKFAPPPKKSEPTIISPKPFSKPQEPVKAEEAEQPKTDYKKIGNPLPGMHIEADNEEEPEENDDDWDDDEDEAAQPPLPSRNVASGAPVQKEEPEQEEIAPSLPSRNSIPAPKQEEAPEQAPEEEIEEEAEEAAPQLPSRSSAAPPPPPRRATPEKKPKENPWATAEYDYDAAEDNELTFVENDKIINIEFVDDDWWLGELEKDGSKGLFPSNYVSLGN
# chain 2: MQQTKFGKMYLDHDSVVEYSEDEIVEADRITLGYKKRLSMIENQMRHLLEDFSLDVQQIEPILADLQKYYDAFLQLLQKRNKSLQCKRSTHQPVPSPMNSQTSTNAKVNLSGKLMKFQLNSVQKFDEENILRILQNKIEFEHYFQIDKGKKQKVLLLAVYQCLNGPTRLHKVLNIEGIIHNNSIRTILGKQVSSSKWTVFLYDVKLVLLAHRQDVPNLETSKMIVRYGDLFPCALYFKDHTAY
# Variants of: B1
# Assay: DHFR protein-fragment complementation in yeast (Abp1-DHFR F[1,2] x partner-DHFR F[3]), deep mutational scanning, second methotrexate selection vs reference
# Conditions: with Hua2; S. cerevisiae, DHFR-PCA selection in liquid with methotrexate at 30 C, two 72 h selections (the score uses the second); reference = the pre-selection culture; not an affinity; value at the no-binding floor (a bound); scale: DMS score: mean over two replicates of log2(f_test/f_ref + 0.5)/ln 2, minus the synonymous-codon median
row,Variant,screen value
1,chain 1 MALEPIDYTTHSREIDAEYLKIVRGSDPDTTWLIISPNAKKEYEPESTGSSFHDFLQLFDETKVQYGLARVSPPGSDVEKIIIIGWCPDSAPLKTRASFAANFAAVANNLFKGYHVQVTARDEDDLDENELLMKISNAAGARYSIQTSSKQQGKASTPPVKKSFTPSKSPAPVSKKEPVKTPSPAPAAKISSRVNDNNDDDDWNEPELKERDFDQAPLKPNQSSYKPIGKIDLQKVIAEEKAKEDPRLVQKPTAAGSKIDPSSDIANLKNESKLKRDSEFNSFLGTTKPPSMTESSLKNDDDKVIKGFRNEKSPAQLWAERKAKQNSGNAETKAEAPKPEVPEDEPEGEPDVKDLKSKFEGLAASEKEEEEMENKFAPPPKKSEPTIISPKPFSKPQEPVKAEEAEQPKTDYKKIGNPLPGMHIEADNEEEPEENDDDWDDDEDEAAQPPLPSRNVASGAPVQKEEPEQEEIAPSLPSRNSIPAPKQEEAPEQAPEEEIEEEAEEAAPQLPSRSSAAPPPPPRRATPEKKPKENPWATAEYDYDAAEDNPLTFVENDKIINIEFVDDDWWLGELEKDGSKGLFPSNYVSLGN [chain 1 E550P],< -3.06
2,chain 1 MALEPIDYTTHSREIDAEYLKIVRGSDPDTTWLIISPNAKKEYEPESTGSSFHDFLQLFDETKVQYGLARVSPPGSDVEKIIIIGWCPDSAPLKTRASFAANFAAVANNLFKGYHVQVTARDEDDLDENELLMKISNAAGARYSIQTSSKQQGKASTPPVKKSFTPSKSPAPVSKKEPVKTPSPAPAAKISSRVNDNNDDDDWNEPELKERDFDQAPLKPNQSSYKPIGKIDLQKVIAEEKAKEDPRLVQKPTAAGSKIDPSSDIANLKNESKLKRDSEFNSFLGTTKPPSMTESSLKNDDDKVIKGFRNEKSPAQLWAERKAKQNSGNAETKAEAPKPEVPEDEPEGEPDVKDLKSKFEGLAASEKEEEEMENKFAPPPKKSEPTIISPKPFSKPQEPVKAEEAEQPKTDYKKIGNPLPGMHIEADNEEEPEENDDDWDDDEDEAAQPPLPSRNVASGAPVQKEEPEQEEIAPSLPSRNSIPAPKQEEAPEQAPEEEIEEEAEEAAPQLPSRSSAAPPPPPRRATPEKKPKENPWATAEYDYDAAEDNRLTFVENDKIINIEFVDDDWWLGELEKDGSKGLFPSNYVSLGN [chain 1 E550R],-3

# Next, values leading:
row,screen value,Variant
1,< -3.06,chain 1 MALEPIDYTTHSREIDAEYLKIVRGSDPDTTWLIISPNAKKEYEPESTGSSFHDFLQLFDETKVQYGLARVSPPGSDVEKIIIIGWCPDSAPLKTRASFAANFAAVANNLFKGYHVQVTARDEDDLDENELLMKISNAAGARYSIQTSSKQQGKASTPPVKKSFTPSKSPAPVSKKEPVKTPSPAPAAKISSRVNDNNDDDDWNEPELKERDFDQAPLKPNQSSYKPIGKIDLQKVIAEEKAKEDPRLVQKPTAAGSKIDPSSDIANLKNESKLKRDSEFNSFLGTTKPPSMTESSLKNDDDKVIKGFRNEKSPAQLWAERKAKQNSGNAETKAEAPKPEVPEDEPEGEPDVKDLKSKFEGLAASEKEEEEMENKFAPPPKKSEPTIISPKPFSKPQEPVKAEEAEQPKTDYKKIGNPLPGMHIEADNEEEPEENDDDWDDDEDEAAQPPLPSRNVASGAPVQKEEPEQEEIAPSLPSRNSIPAPKQEEAPEQAPEEEIEEEAEEAAPQLPSRSSAAPPPPPRRATPEKKPKENPWATAEYDYDAAEDNSLTFVENDKIINIEFVDDDWWLGELEKDGSKGLFPSNYVSLGN [chain 1 E550S]
2,-3.03,chain 1 MALEPIDYTTHSREIDAEYLKIVRGSDPDTTWLIISPNAKKEYEPESTGSSFHDFLQLFDETKVQYGLARVSPPGSDVEKIIIIGWCPDSAPLKTRASFAANFAAVANNLFKGYHVQVTARDEDDLDENELLMKISNAAGARYSIQTSSKQQGKASTPPVKKSFTPSKSPAPVSKKEPVKTPSPAPAAKISSRVNDNNDDDDWNEPELKERDFDQAPLKPNQSSYKPIGKIDLQKVIAEEKAKEDPRLVQKPTAAGSKIDPSSDIANLKNESKLKRDSEFNSFLGTTKPPSMTESSLKNDDDKVIKGFRNEKSPAQLWAERKAKQNSGNAETKAEAPKPEVPEDEPEGEPDVKDLKSKFEGLAASEKEEEEMENKFAPPPKKSEPTIISPKPFSKPQEPVKAEEAEQPKTDYKKIGNPLPGMHIEADNEEEPEENDDDWDDDEDEAAQPPLPSRNVASGAPVQKEEPEQEEIAPSLPSRNSIPAPKQEEAPEQAPEEEIEEEAEEAAPQLPSRSSAAPPPPPRRATPEKKPKENPWATAEYDYDAAEDNTLTFVENDKIINIEFVDDDWWLGELEKDGSKGLFPSNYVSLGN [chain 1 E550T]
3,< -3.06,chain 1 MALEPIDYTTHSREIDAEYLKIVRGSDPDTTWLIISPNAKKEYEPESTGSSFHDFLQLFDETKVQYGLARVSPPGSDVEKIIIIGWCPDSAPLKTRASFAANFAAVANNLFKGYHVQVTARDEDDLDENELLMKISNAAGARYSIQTSSKQQGKASTPPVKKSFTPSKSPAPVSKKEPVKTPSPAPAAKISSRVNDNNDDDDWNEPELKERDFDQAPLKPNQSSYKPIGKIDLQKVIAEEKAKEDPRLVQKPTAAGSKIDPSSDIANLKNESKLKRDSEFNSFLGTTKPPSMTESSLKNDDDKVIKGFRNEKSPAQLWAERKAKQNSGNAETKAEAPKPEVPEDEPEGEPDVKDLKSKFEGLAASEKEEEEMENKFAPPPKKSEPTIISPKPFSKPQEPVKAEEAEQPKTDYKKIGNPLPGMHIEADNEEEPEENDDDWDDDEDEAAQPPLPSRNVASGAPVQKEEPEQEEIAPSLPSRNSIPAPKQEEAPEQAPEEEIEEEAEEAAPQLPSRSSAAPPPPPRRATPEKKPKENPWATAEYDYDAAEDNWLTFVENDKIINIEFVDDDWWLGELEKDGSKGLFPSNYVSLGN [chain 1 E550W]
